Target: pY213 peptide (14-residue Abi1 peptide containing phosphorylated tyrosine 213) (human)
Test: SPR (Biacore 3000), biotinylated pY213 on streptavidin chip, GST-Abl SH2 injected, 1:1 model

- Kd: 33.2 nM
Substance: GST-Abl SH2 domain fusion protein (from UniProt P00519 146-236)
